Measured values as given in patent US20170369545A1 (CENTRE NATIONAL DE LA RECHERCHE SCIENTIFIQUE, published 2017).

B1: K1K1 variant 3 (GS-linker variant) (designed binder)
chain: MAIRNCIIGKGRSYKGTVSITKSGIKCQPWSSMIPHEHSFLPSSYRGKDLQENYCRNPRGEEGGPWCFTSNPEVRYEVCDIPQCGSGGCIIGKGRSYKGTVSITKSGIKCQPWSSMIPHEHSFLPSSYRGKDLQENYCRNPRGEEGGPWCFTSNPEVRYEVCDIPQCSEVE
B2: K1K1 variant 1 (tagless variant) (designed binder)
chain: MAIRNCIIGKGRSYKGTVSITKSGIKCQPWSSMIPHEHSFLPSSYRGKDLQENYCRNPRGEEGGPWCFTSNPEVRYEVCDIPQCSEVECIIGKGRSYKGTVSITKSGIKCQPWSSMIPHEHSFLPSSYRGKDLQENYCRNPRGEEGGPWCFTSNPEVRYEVCDIPQCSEVE
B3: HGF/SF-K1K1 (C-terminally tagged K1K1 protein, 6xHis tag) (designed binder)
chain: MAIRNCIIGKGRSYKGTVSITKSGIKCQPWSSMIPHEHSFLPSSYRGKDLQENYCRNPRGEEGGPWCFTSNPEVRYEVCDIPQCSEVECIIGKGRSYKGTVSITKSGIKCQPWSSMIPHEHSFLPSSYRGKDLQENYCRNPRGEEGGPWCFTSNPEVRYEVCDIPQCSEVEHHHHHH
B4: K1K1 variant 2 (long linker variant) (designed binder)
chain: MAIRNCIIGKGRSYKGTVSITKSGIKCQPWSSMIPHEHSFLPSSYRGKDLQENYCRNPRGEEGGPWCFTSNPEVRYEVCDIPQCGGGGSLVPRGSGGGGSCIIGKGRSYKGTVSITKSGIKCQPWSSMIPHEHSFLPSSYRGKDLQENYCRNPRGEEGGPWCFTSNPEVRYEVCDIPQCSEVE

How the values were obtained:
[1] = target: T1, tyrosine kinase receptor MET on HeLa cells (UniProt P08581 25-1390, limits assumed); test: cell-based or functional assay
T1 sequence (P08581 25-1390 limits assumed): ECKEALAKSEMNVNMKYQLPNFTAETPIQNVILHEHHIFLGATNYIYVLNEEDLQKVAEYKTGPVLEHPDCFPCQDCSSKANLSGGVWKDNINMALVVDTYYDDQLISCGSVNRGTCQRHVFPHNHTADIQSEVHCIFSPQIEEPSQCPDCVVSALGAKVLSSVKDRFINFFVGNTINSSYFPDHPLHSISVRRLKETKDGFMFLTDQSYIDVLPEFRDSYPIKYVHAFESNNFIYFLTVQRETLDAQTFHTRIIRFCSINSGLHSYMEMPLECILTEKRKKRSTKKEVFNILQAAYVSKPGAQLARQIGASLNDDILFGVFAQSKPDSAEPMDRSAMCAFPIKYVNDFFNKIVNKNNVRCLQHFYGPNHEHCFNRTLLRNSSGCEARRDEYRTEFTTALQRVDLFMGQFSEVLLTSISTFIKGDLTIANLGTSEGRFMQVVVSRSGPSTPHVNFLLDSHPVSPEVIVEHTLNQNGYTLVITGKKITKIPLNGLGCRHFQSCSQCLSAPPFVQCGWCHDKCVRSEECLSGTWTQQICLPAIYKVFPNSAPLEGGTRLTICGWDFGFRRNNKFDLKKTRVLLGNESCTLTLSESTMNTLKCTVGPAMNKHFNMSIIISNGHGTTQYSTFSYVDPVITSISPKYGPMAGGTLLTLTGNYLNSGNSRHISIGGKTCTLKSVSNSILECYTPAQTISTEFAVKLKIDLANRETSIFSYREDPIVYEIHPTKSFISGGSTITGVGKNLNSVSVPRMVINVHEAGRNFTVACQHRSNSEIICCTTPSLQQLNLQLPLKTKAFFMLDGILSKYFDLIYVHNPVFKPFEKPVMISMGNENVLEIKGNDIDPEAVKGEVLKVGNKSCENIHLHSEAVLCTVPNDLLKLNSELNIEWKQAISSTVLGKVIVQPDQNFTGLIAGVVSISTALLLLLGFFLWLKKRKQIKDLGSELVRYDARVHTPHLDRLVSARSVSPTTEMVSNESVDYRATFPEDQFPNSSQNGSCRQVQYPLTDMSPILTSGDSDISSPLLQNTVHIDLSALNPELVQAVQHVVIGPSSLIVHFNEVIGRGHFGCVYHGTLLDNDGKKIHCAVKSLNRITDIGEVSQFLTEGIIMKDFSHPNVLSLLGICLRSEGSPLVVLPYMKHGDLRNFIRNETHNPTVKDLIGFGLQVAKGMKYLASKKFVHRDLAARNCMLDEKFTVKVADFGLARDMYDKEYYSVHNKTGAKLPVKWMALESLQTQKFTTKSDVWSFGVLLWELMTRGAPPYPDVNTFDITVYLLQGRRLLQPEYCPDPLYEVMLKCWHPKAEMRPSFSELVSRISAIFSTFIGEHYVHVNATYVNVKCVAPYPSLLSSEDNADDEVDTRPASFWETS

[2] = target: T1, tyrosine kinase receptor MET on HeLa …; test: cell-based or functional assay; remark: listed apart in the source

| Binder | ERK and Akt phosphorylation in HeLa cells (western blot, ALPHAScreen) [1] [pM] | MET phosphorylation in HeLa cells (western blot) [1] [pM] | agonist activity against NK1 (ERK and Akt phosphorylation in HeLa cells) [1] | EC50 (read off the curve), Akt phosphorylation (P-AKT) [P-AKT] [2] [pM] | EC50 (read off the curve), ERK phosphorylation (P-ERK) [P-ERK] [2] [pM] |
| --- | --- | --- | --- | --- | --- |
| B1 | ~100 | 100 | ≥ 10 times (against NK1) | – | – |
| B2 | ~100 | 100 | ≥ 10 times (against NK1) | – | – |
| B3 | ~100 | 100 | ≥ 10 times (against NK1) | ~30 | ~30 |
| B4 | ~100 | 100 | ≥ 10 times (against NK1) | – | – |
